Measurements published in patent US20260210971A1 (Pfizer, published 2026).

Key:
[1] = target: T1, recombinant soluble murine TL1A (mouse, UniProt Q5UBV8 75-252); test: SPR, IgG captured on anti-hIgG, TL1A injected;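 note: biacore measurement on a carboxymethylated dextran chip, double-referenced against a control surface and buffer, rates fitted to a one-to-one binding model, KD from koff over kon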
T1 construct: also called murine rsTL1A; mouse TL1A
T1 chain: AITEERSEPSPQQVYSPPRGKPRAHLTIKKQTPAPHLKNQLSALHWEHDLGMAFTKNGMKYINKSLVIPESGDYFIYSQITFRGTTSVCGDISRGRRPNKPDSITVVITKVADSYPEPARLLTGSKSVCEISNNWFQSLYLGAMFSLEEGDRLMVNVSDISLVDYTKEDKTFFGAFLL
From the text: The antibodies were captured via directly immobilized anti-human IgG (GE Healthcare) onto a carboxymethylated dextran sensor chip surface (CM5) using a Biacore T100 or T200 instrument. Anti-human IgG was immobilized through amine coupling to densities of approximately 4,000-13,000 response units (RU). […] At the end of each cycle, the entire anti-hIgG surface was regenerated by a 30-second pulse of 3M MgCl₂ followed by two consecutive 15-second pulses of PBS-NET. […] All injections were performed at 25° C. at a collection rate of 10 Hz. All sensorgrams were double referenced by using both a control surface and buffer injections. Rate constants were determined by fitting the data to a 1:1 model in Biacore T100, T200 evaluation software v1.0, or BIAevaluation software v4.1.1 and the equation KD=Kd/kₐ.
At the highest cytokine concentrations, the dissociation phase was sometimes extended to 60 minutes to achieve at least a 5% decrease in binding signal.

[2] = target: T2, recombinant soluble human TL1A (human, UniProt O95150 71-251); test: SPR, IgG captured on anti-hIgG, TL1A injected; off rate too slow to measure;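 for koff: biacore T-200 with CM5 chip, anti-human IgG surface capturing under 30 RU of IgG, reference flow cell subtracted, running buffer PBS with 300 mM NaCl, EDTA and Tween20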;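 for kon: biacore T-200 with CM5 chip, anti-human IgG surface capturing under 30 RU of IgG, reference flow cell subtracted, running buffer PBS with 300 mM NaCl, EDTA and Tween20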
T2 construct: Homotrimer, expressed in HEK293 and purified over HitrapNTA; no tag is described; Used biotinylated in the HTRF assay and in flow cytometry; also called rsTL1A; hTL1A
T2 sequence: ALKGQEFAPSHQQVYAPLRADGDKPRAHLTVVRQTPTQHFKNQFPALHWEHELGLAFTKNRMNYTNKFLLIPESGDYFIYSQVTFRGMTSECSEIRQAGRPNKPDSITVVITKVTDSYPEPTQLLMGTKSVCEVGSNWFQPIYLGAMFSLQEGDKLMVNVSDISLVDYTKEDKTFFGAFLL

[3] = target: T3, recombinant soluble cynomolgus monkey TL1A (cynomolgus monkey, UniProt O95150 72-251 (human entry)); test: SPR, IgG captured on anti-hIgG, TL1A injected;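 note: biacore surface plasmon resonance on a dextran sensor chip, double-referenced sensorgrams fitted to a one-to-one binding model, KD taken as dissociation over association rate constant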
T3 construct: also called cyno rsTL1A; cyno TL1A
T3 chain: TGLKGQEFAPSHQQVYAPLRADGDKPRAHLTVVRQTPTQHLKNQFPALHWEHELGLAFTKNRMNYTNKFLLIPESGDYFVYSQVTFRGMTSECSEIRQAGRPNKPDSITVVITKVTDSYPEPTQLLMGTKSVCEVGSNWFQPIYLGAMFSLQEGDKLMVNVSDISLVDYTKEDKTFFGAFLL

[4] = target: T2, recombinant soluble human TL1A; test: KinExA, equilibrium in solution
[5] = target: T2, recombinant soluble human TL1A; test: cell-based or functional assay
[6] = target: T2, recombinant soluble human TL1A; test: SPR, IgG captured on anti-hIgG, TL1A injected;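 note: biacore T-200 with CM5 chip, anti-human IgG surface capturing under 30 RU of IgG, reference flow cell subtracted, running buffer PBS with 300 mM NaCl, EDTA and Tween20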
Method: Biacore analysis was performed using T-200 biosensor, series S CM5 chips and approximately 4000 RU (response units) of an anti-human IgG (GE Healthcare), immobilized in 10 mM sodium acetate immobilization buffer at pH 5.0. Assay conditions were established to minimize the influence of mass transfer, avidity, and rebinding events, as described below. A blank immobilization was carried out on a separate flow cell for reference subtraction. The purified IgGs were diluted in running buffer (PBS, 300 mM sodium chloride, 3.2 mM ethylenediaminetetraacetic acid, 0.01% Tween20) and low levels (<30 RU) captured using a flow rate of 100 μl/min for 2 min, to reduce possible rebinding by the trimeric TL1A. […] Reference-subtracted sensorgrams for each concentration were analyzed using Biacore T-200 evaluation software (v1.0).

B1: 1D1 1.28 (antibody, human IgG1, kappa, V domains shown)
VH: QVQLVQSGAEVKKPGASVKVSCKASGYDFTYYGISWVRQAPGQGLEWMGWISTYNGNKHYARMLQGRVTMTTDTSTRTAYMELRSLRSDDTAVYYCARENYYGSGSYRGGMDVWGQGTTVTVSS
VL: EIVLTQSPATLSLSPGERATLSCRASQSVSSYLAWYQQKPGQAPRLLIYDASNRATGIPARFSGSGSGTDFTLTISSLEPEDFAVYYCQQRSNWPWTFGQGTKVEIKR
notes: Expressed as IgG1; also called 1D1 1.28-hIgG1-3m
[1]
  Kd: ~1530 pM
  koff: 0.00032 s⁻¹
  kon: 210000 M⁻¹ s⁻¹
  t1/2: 0.602 h
[2]
  Kd: < 100 pM
[3]
  Kd: 144 pM
  koff: 5.4e-05 s⁻¹
  kon: 380000 M⁻¹ s⁻¹
  t1/2: 3.59 h
[4]
  Kd: 2.52 pM
[5]
  Caspase Assay, average IC50: 96.2 pM
  NFkB Assay, average IC50: 189 pM

B2: 1D1 Fab (Fab, V domains shown)
VH: QVQLVQSGAEVKKPGASVKVSCKASGYSFTYYGISWVRQAPGQGLEWMGWISTYNGNTNYARMLQGRVTMTTDTSTRTAYMELRSLRSDDTAVYYCARENYYGSGSYRGGMDVWGQGTTVTVSS
VL: EIVLTQSPATLSLSPGERATLSCRASQSVSSYLAWYQQKPGQAPRLLIYDASNRATGIPARFSGSGSGTDFTLTISSLEPEDFAVYYCQQRSNWPWTFGQGTKVEIKR
notes: Made from 1D1 IgG by papain; also called Fab of 1D1
[4]
  Kd: 3000 pM

B3: 1D1 D18 (antibody, V domains shown)
VH: QVQLVQSGAEVKKPGASVKVSCKASGYSFTYYGISWVRQAPGQGLEWMGWISTYNGNTHYARMLQGRVTMTTDTSTRTAYMELRSLRSDDTAVYYCARENYYGSGSYRGGMDVWGQGTTVTVSS
VL: EIVLTQSPATLSLSPGERATLSCRASQSVSSYLAWYQQKPGQAPRLLIYDASNRATGIPARFSGSGSGTDFTLTISSLEPEDFAVYYCQQRSNWPWTFGQGTKVEIKR
notes: IgG with triple mutant Fc as for 1D1 D37
[6]
  Kd: 662 pM
  koff: 0.000473 s⁻¹
  kon: 717000 M⁻¹ s⁻¹

B4: 1D1 D28 (antibody, V domains shown)
VH: QVQLVQSGAEVKKPGASVKVSCKASGYSFTYYGISWVRQAPGQGLEWMGWISTYNGKTHYARMHQGRVTMTTDTSTRTAYMELRSLRSDDTAVYYCARENYYGSGSYRGGMDVWGQGTTVTVSS
VL: EIVLTQSPATLSLSPGERATLSCRASQSVSSYLAWYQQKPGQAPRLLIYDASNRATGIPARFSGSGSGTDFTLTISSLEPEDFAVYYCQQRSNWPWTFGQGTKVEIKR
notes: as for B3
[6]
  Kd: 527 pM
  koff: 0.000568 s⁻¹
  kon: 1.09e+06 M⁻¹ s⁻¹

B5: 1D1 D31 (antibody, V domains shown)
VH: QVQLVQSGAEVKKPGASVKVSCKASGYSFTYYGISWVRQAPGQGLEWMGWISTYNGNKHYARMLQGRVTMTTDTSTRTAYMELRSLRSDDTAVYYCARENYYGSGSYRGGMDVWGQGTTVTVSS
VL: EIVLTQSPATLSLSPGERATLSCRASQSVSSYLAWYQQKPGQAPRLLIYDASNRATGIPARFSGSGSGTDFTLTISSLEPEDFAVYYCQQRSNWPWTFGQGTKVEIKR
notes: as for B3
[6]
  Kd: 518 pM
  koff: 0.00042 s⁻¹
  kon: 822000 M⁻¹ s⁻¹

B6: 1D1 DH10 (antibody, V domains shown)
VH: QVQLVQSGAEVKKPGASVKVSCKASGYSFTYYGISWVRQAPGQGLEWMGWISTYNGNTNYARMLQGRVTMTTDTSTRTAYMELRSLRSDDTAVYYCARENYYGSGAYRGGMDVWGQGTTVTVSS
VL: EIVLTQSPATLSLSPGERATLSCRASQSVSSYLAWYQQKPGQAPRLLIYDASNRATGIPARFSGSGSGTDFTLTISSLEPEDFAVYYCQQRSNWPWTFGQGTKVEIKR
notes: as for B3
[6]
  Kd: 588 pM
  koff: 0.0005 s⁻¹
  kon: 853000 M⁻¹ s⁻¹

B7: 1D1 1.29 (antibody, human IgG1, kappa, V domains shown)
VH: QVQLVQSGAEVKKPGASVKVSCKASGYDFTYYGISWVRQAPGQGLEWMGWISTYNGGTHYARMLQGRVTMTTDTSTRTAYMELRSLRSDDTAVYYCARENYYGSGSYRGGMDVWGQGTTVTVSS
VL: EIVLTQSPATLSLSPGERATLSCRASQSVSSYLAWYQQKPGQAPRLLIYDASNRATGIPARFSGSGSGTDFTLTISSLEPEDFAVYYCQQRSNWPWTFGQGTKVEIKR
notes: Expressed as IgG1
[1]
  Kd: 2860 pM
  koff: 0.0007 s⁻¹
  kon: 260000 M⁻¹ s⁻¹
  t1/2: 0.263 h
[2]
  Kd: < 100 pM
[3]
  Kd: 92 pM
  koff: 4.5e-05 s⁻¹
  kon: 490000 M⁻¹ s⁻¹
  t1/2: 4.32 h
[4]
  Kd: 19.4 pM
[5]
  Caspase Assay, average IC50: 85 pM
  NFkB Assay, average IC50: 281 pM

B8: 1D1 D5 (antibody, V domains shown)
VH: QVQLVQSGAEVKKPGASVKVSCKASGYSFTYYGISWVRQAPGQGLEWMGWISTYNGNTNYARMLQGRVTMTTDTSTRTAYMELRSLRSDDTAVYYCARENYYGSGAFRGGMDGWGQGTTVTVSS
VL: EIVLTQSPATLSLSPGERATLSCRASQSVSSYLAWYQQKPGQAPRLLIYDASNRATGIPARFSGSGSGTDFTLTISSLEPEDFAVYYCQQRSNWPWTFGQGTKVEIKR
notes: as for B3
[6]
  Kd: 625 pM
  koff: 0.000478 s⁻¹
  kon: 776000 M⁻¹ s⁻¹

B9: 1D1 DH8 (antibody, V domains shown)
VH: QVQLVQSGAEVKKPGASVKVSCKASGYSFTYYGISWVRQAPGQGLEWMGWISAYNGNTHYARMLQGRVTMTTDTSTRTAYMELRSLRSDDTAVYYCARENYYGSGSYRGGMDVWGQGTTVTVSS
VL: EIVLTQSPATLSLSPGERATLSCRASQSVSSYLAWYQQKPGQAPRLLIYDASNRATGIPARFSGSGSGTDFTLTISSLEPEDFAVYYCQQRSNWPWTFGQGTKVEIKR
notes: as for B3
[6]
  Kd: 924 pM
  koff: 0.000896 s⁻¹
  kon: 977000 M⁻¹ s⁻¹

B10: 1D1 D29 (antibody, V domains shown)
VH: QVQLVQSGAEVKKPGASVKVSCKASGYSFTYYGISWVRQAPGQGLEWMGWISSYNGNTHYARMLQGRVTMTTDTSTRTAYMELRSLRSDDTAVYYCARENYYGSGSYRGGMDVWGQGTTVTVSS
VL: EIVLTQSPATLSLSPGERATLSCRASQSVSSYLAWYQQKPGQAPRLLIYDASNRATGIPARFSGSGSGTDFTLTISSLEPEDFAVYYCQQRSNWPWTFGQGTKVEIKR
notes: as for B3
[6]
  Kd: 705 pM
  koff: 0.000712 s⁻¹
  kon: 1.01e+06 M⁻¹ s⁻¹

B11: 1D1 D25 (antibody, V domains shown)
VH: QVQLVQSGAEVKKPGASVKVSCKASGYSFTYYGISWVRQAPGQGLEWMGWISTYNGATHYARMLQGRVTMTTDTSTRTAYMELRSLRSDDTAVYYCARENYYGSGSYRGGMDVWGQGTTVTVSS
VL: EIVLTQSPATLSLSPGERATLSCRASQSVSSYLAWYQQKPGQAPRLLIYDASNRATGIPARFSGSGSGTDFTLTISSLEPEDFAVYYCQQRSNWPWTFGQGTKVEIKR
notes: as for B3
[6]
  Kd: 453 pM
  koff: 0.000387 s⁻¹
  kon: 868000 M⁻¹ s⁻¹

B12: 1D1 1.33 (antibody, human IgG1, kappa, V domains shown)
VH: QVQLVQSGAEVKKPGASVKVSCKASGYDFTYYGISWVRQAPGQGLEWMGWISTYNGVTHYARMLQGRVTMTTDTSTRTAYMELRSLRSDDTAVYYCARENYYGSGAYRGGMDAWGQGTTVTVSS
VL: EIVLTQSPATLSLSPGERATLSCRASQSVSSYLAWYQQKPGQAPRLLIYDASNRATGIPARFSGSGSGTDFTLTISSLEPEDFAVYYCQQRSNWPWTFGQGTKVEIKR
notes: Expressed as IgG1; also called 1D1 1.33-hIgG1-3m
[1]
  Kd: 1910 pM
  koff: 0.00029 s⁻¹
  kon: 160000 M⁻¹ s⁻¹
  t1/2: 0.651 h
[2]
  Kd: < 100 pM
[3]
  Kd: 107 pM
  koff: 3.7e-05 s⁻¹
  kon: 360000 M⁻¹ s⁻¹
  t1/2: 5.14 h
[4]
  Kd: 10.6 pM
[5]
  Caspase Assay, average IC50: 146 pM
  NFkB Assay, average IC50: 200 pM

B13: 1D1 DH9 (antibody, V domains shown)
VH: QVQLVQSGAEVKKPGASVKVSCKASGYSFTYYGISWVRQAPGQGLEWMGWISPYNGKTHYARMLQGRVTMTTDTSTRTAYMELRSLRSDDTAVYYCARENYYGSGSYRGGMDVWGQGTTVTVSS
VL: EIVLTQSPATLSLSPGERATLSCRASQSVSSYLAWYQQKPGQAPRLLIYDASNRATGIPARFSGSGSGTDFTLTISSLEPEDFAVYYCQQRSNWPWTFGQGTKVEIKR
notes: as for B3
[6]
  Kd: 840 pM
  koff: 0.000866 s⁻¹
  kon: 1.04e+06 M⁻¹ s⁻¹

B14: 1D1 D21 (antibody, V domains shown)
VH: QVQLVQSGAEVKKPGASVKVSCKASGYSFTYYGISWVRQAPGQGLEWMGWISTYNGKTHYARMLQGRVTMTTDTSTRTAYMELRSLRSDDTAVYYCARENYYGSGSYRGGMDVWGQGTTVTVSS
VL: EIVLTQSPATLSLSPGERATLSCRASQSVSSYLAWYQQKPGQAPRLLIYDASNRATGIPARFSGSGSGTDFTLTISSLEPEDFAVYYCQQRSNWPWTFGQGTKVEIKR
notes: as for B3
[6]
  Kd: 709 pM
  koff: 0.00052 s⁻¹
  kon: 745000 M⁻¹ s⁻¹
